Reference: article PMC10359615

Biological target: APE1Dead (catalytically dead APE1) D210N;E96Q (human) (UniProt P27695)
Test: EMSA
Details: EMSA: 50 mM Tris pH 8, 1 mM EDTA, 0.2 mg/ml BSA, 1 mM DTT, 5% sucrose, room temperature, 5 nM DNA, FRET: 20 mM HEPES pH 7.5, 150 mM KCl, 5 mM MgCl2, 5 mM …

APE1Dead (catalytically dead APE1) D210N;E96Q (human), sequence (P27695 whole entry E96Q/D210N): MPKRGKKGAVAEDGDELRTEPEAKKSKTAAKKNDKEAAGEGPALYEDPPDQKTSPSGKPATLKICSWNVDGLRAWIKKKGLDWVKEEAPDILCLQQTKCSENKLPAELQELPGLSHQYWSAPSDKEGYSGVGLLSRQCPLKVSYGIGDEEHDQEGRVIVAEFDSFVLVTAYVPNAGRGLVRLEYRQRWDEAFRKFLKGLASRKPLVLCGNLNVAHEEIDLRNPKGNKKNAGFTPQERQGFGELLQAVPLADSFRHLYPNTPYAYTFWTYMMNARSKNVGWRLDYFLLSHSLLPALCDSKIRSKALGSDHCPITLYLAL

**Q.** How did the Kd (1 mM EDTA, Kd,app, N11 = tetrahydrofuran abasic analog (THF)) turn out when “GCTGATGCGCNCGACGGATCC [abasic ssDNA 21-mer]” was run?
**A.** The Kd was 22000 pM.

**Q.** Which Kd (1 mM EDTA, Kd,app, THF abasic analog) does the source give for abasic dsDNA here?
**A.** The Kd was 400 pM.

**Q.** How did the Kd (THF abasic analog directly next to the 3' ds-ss junction) turn out when “CTCAACACTTAACTACCGTCG / TGGATGATGACTCTTCTGCGTTCGCTGATGCGCCGACGGTAGTTAAGTGTTGAG [PTJ, abasic site at junction (FAM)]” was run?
**A.** Its Kd is 1200 pM.

**Q.** How did the Kd (THF abasic analog 7 nt from the 3' ds-ss junction) turn out when “CTCAACACTTAACTA / TGGATGATGACTCTTCTGCGTTCGCTGATGCGCCGACGGTAGTTAAGTGTTGAG [Rec-PTJ, abasic site 7 nt from junction (FAM)]” was run?
**A.** The Kd was 700 pM.
